We go through one substance from publication doi:10.1101/2025.03.26.645438.

The target of this assay is Human GLP1R protein (human) (UniProt P43220).
Chain of Human GLP1R protein (human) (P43220 24-463): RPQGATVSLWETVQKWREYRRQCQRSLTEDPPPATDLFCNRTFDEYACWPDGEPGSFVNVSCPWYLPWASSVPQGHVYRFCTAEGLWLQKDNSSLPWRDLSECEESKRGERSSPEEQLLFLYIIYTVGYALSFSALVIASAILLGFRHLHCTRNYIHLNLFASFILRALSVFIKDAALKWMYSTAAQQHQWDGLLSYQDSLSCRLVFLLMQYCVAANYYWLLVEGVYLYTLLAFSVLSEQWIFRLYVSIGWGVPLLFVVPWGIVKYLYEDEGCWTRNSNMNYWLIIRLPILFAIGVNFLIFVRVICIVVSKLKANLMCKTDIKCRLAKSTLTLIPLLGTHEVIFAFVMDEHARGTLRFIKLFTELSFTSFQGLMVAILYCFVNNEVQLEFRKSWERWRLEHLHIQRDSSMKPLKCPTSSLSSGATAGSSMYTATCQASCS

Substance Semaglutide (peptide) showed a cAMP accumulation (HTRF) in HEK293 cells stably expressing human GLP-1R, EC50 of 0.019 nM.
